Data as given in patent publication US20240066131A1 (Protagonist Therapeutics, Inc., priority 2020, published 2024).
Values belong to the binder of their own block, whether it stands above or below them. Starred links: 1 amine or outer side, 2 acyl side, 3 side chain; linkers in the order of their positions; H or OH if unused. Non-standard residues stand in square brackets, D forms with d. Groups on a side chain read outwards from the residue. Primed or numbered codes have the meaning given here. *: point of attachment. Tet2 = (S)-2-amino-4-(1H-tetrazol-5-yl)butanoic acid, O=C([C@H](CCc1nn[nH]n1)N[*:1])[*:2]; ButanoicP = (R)-4-(pyrrolidin-2-yl)butanoic acid, O=C(CCC[C@@H]1CCCN1[*:1])[*:2]; Ala(1H-tetrazol-5-yl) = N[C@@H](Cc1nnn[nH]1)C(=O)O; Dip = N[C@H](C(=O)O)C(c1ccccc1)c1ccccc1; His(τ-Me) = Cn1cnc(C[C@H](N)C(=O)O)c1; Stearoyl = CCCCCCCCCCCCCCCCCC(=O)*; Palmitoyl = CCCCCCCCCCCCCCCC(=O)*; Myristoyl = CCCCCCCCCCCCCC(=O)*; β3hF = N[C@H](CC(=O)O)Cc1ccccc1; (n-hexyl)Gly = n-hexyl glycine; Tle = CC(C)(C)[C@H](N)C(=O)O; hLeu = CC(C)CC[C@H](N)C(=O)O; Isovaleryl = CC(C)CC(=O)*; hIle′ = not defined here; AEEA = NCCOCCOCC(=O)O; Ahx = NCCCCCC(=O)O; βAla = NCCC(=O)O

Biological target: T1, human ferroportin (SLC40A1) fused in frame with GFP, stably expressed in HEK293 cells (human, UniProt Q9NP59 1-571)
T1 sequence (looked up): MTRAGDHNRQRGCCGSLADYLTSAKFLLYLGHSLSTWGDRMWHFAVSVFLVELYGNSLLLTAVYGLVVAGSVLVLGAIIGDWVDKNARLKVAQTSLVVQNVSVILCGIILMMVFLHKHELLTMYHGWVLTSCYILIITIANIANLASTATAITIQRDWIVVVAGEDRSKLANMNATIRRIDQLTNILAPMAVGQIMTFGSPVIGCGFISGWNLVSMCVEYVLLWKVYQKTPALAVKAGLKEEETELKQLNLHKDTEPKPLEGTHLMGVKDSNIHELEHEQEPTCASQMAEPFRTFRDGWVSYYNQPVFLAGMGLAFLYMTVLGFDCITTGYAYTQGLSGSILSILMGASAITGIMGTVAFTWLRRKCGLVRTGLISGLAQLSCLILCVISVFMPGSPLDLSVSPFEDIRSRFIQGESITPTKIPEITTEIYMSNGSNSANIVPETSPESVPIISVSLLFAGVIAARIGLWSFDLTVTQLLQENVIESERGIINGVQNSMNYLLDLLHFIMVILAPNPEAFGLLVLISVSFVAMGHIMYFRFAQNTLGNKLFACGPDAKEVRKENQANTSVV
Assay: cell-based or functional assay

- FPN EC50: 372 nM
Binder: Isovaleryl-ETH[Dip]PLIK([Ahx-Palmitoyl])[β3hF]-NH2 [Isovaleric Acid-E-T-H-[Dpa]-P-L-I-[Lys(Ahx_Palm)]-[bhPhe]-NH2]

- FPN EC50: 101 nM
B1: Isovaleric Acid-[Tet2]-T-[His_1Me]-[Dpa]-P-I-I-[Lys(Ahx_Palm)]-[bhPhe]-NH2 (peptide)
peptide: Isovaleryl-[Tet2]T[His(τ-Me)][Dip]PIIK([Ahx-Palmitoyl])[β3hF]-NH2
SMILES: CCCCCCCCCCCCCCCC(=O)NCCCCCC(=O)NCCCC[C@H](NC(=O)[C@@H](NC(=O)[C@@H](NC(=O)[C@@H]1CCCN1C(=O)[C@@H](NC(=O)[C@H](Cc1cn(C)cn1)NC(=O)[C@@H](NC(=O)[C@H](CCc1nn[nH]n1)NC(=O)CC(C)C)[C@@H](C)O)C(c1ccccc1)c1ccccc1)[C@@H](C)CC)[C@@H](C)CC)C(=O)N[C@H](CC(N)=O)Cc1ccccc1

- FPN EC50: 232 nM
Binder: Isovaleryl-ETH[Dip]PIIK([Ahx-Palmitoyl])[β3hF]-NH2 [Isovaleric Acid-E-T-H-[Dpa]-P-I-I-[Lys(Ahx_Palm)]-[bhPhe]-NH2]

- FPN EC50: 73.7 nM
Binder: Isovaleryl-ETH[Dip]PAIK([AEEA-AEEA-Palmitoyl])[β3hF]-NH2 [Isovaleric Acid-E-T-H-[Dpa]-P-A-I-[Lys(1PEG2_1PEG2_Palm)]-[bhPhe]-NH2]

- FPN EC50: 73 nM
Binder: Isovaleryl-ET[His(τ-Me)][Dip]PAIK([Ahx-Palmitoyl])-NH2 [Isovaleric Acid-E-T-[His_1Me]-[Dpa]-P-A-I-[Lys(Ahx_Palm)]-NH2]

- FPN EC50: 33.4 nM
Binder: Isovaleryl-[Ala(1H-tetrazol-5-yl)]T[His(τ-Me)][Dip]PIIK([Ahx-Palmitoyl])[β3hF]-NH2 [Isovaleric Acid-[Tet1]-T-[His_1Me]-[Dpa]-P-I-I-[Lys(Ahx_Palm)]-[bhPhe]-NH2]

- FPN EC50: 86.8 nM
B2: Isovaleric Acid-[Tet1]-T-H-[Dpa]-P-I-I-[Lys(Ahx_Palm)]-[bhPhe]-NH2 (peptide)
peptide: Isovaleryl-[Ala(1H-tetrazol-5-yl)]TH[Dip]PIIK([Ahx-Palmitoyl])[β3hF]-NH2
SMILES: CCCCCCCCCCCCCCCC(=O)NCCCCCC(=O)NCCCC[C@H](NC(=O)[C@@H](NC(=O)[C@@H](NC(=O)[C@@H]1CCCN1C(=O)[C@@H](NC(=O)[C@H](Cc1c[nH]cn1)NC(=O)[C@@H](NC(=O)[C@H](Cc1nnn[nH]1)NC(=O)CC(C)C)[C@@H](C)O)C(c1ccccc1)c1ccccc1)[C@@H](C)CC)[C@@H](C)CC)C(=O)N[C@H](CC(N)=O)Cc1ccccc1

- FPN EC50: 1330 nM
Binder: Isovaleryl-ETH[Dip]PAIK([Ahx-C22])[β3hF]-NH2 [Isovaleric Acid-E-T-H-[Dpa]-P-A-I-[Lys(Ahx_C22)]-[bhPhe]-NH2]

- FPN EC50: 199 nM
B3: Isovaleric Acid-E-T-H-[Dpa]-P-V-I-[Lys(Ahx_Palm)]-[bhPhe]-NH2 (peptide)
peptide: Isovaleryl-ETH[Dip]PVIK([Ahx-Palmitoyl])[β3hF]-NH2
SMILES: CCCCCCCCCCCCCCCC(=O)NCCCCCC(=O)NCCCC[C@H](NC(=O)[C@@H](NC(=O)[C@@H](NC(=O)[C@@H]1CCCN1C(=O)[C@@H](NC(=O)[C@H](Cc1c[nH]cn1)NC(=O)[C@@H](NC(=O)[C@H](CCC(=O)O)NC(=O)CC(C)C)[C@@H](C)O)C(c1ccccc1)c1ccccc1)C(C)C)[C@@H](C)CC)C(=O)N[C@H](CC(N)=O)Cc1ccccc1

- FPN EC50: 193 nM
B4: Isovaleric Acid-E-T-H-[Dpa]-P-A-[Lys(Ahx_Palm)]-NH2 (peptide)
peptide: Isovaleryl-ETH[Dip]PAK([Ahx-Palmitoyl])-NH2
SMILES: CCCCCCCCCCCCCCCC(=O)NCCCCCC(=O)NCCCC[C@H](NC(=O)[C@H](C)NC(=O)[C@@H]1CCCN1C(=O)[C@@H](NC(=O)[C@H](Cc1c[nH]cn1)NC(=O)[C@@H](NC(=O)[C@H](CCC(=O)O)NC(=O)CC(C)C)[C@@H](C)O)C(c1ccccc1)c1ccccc1)C(N)=O

- FPN EC50: 123 nM
Binder: Isovaleryl-ETH[Dip]PAIK([Ahx-C10])[β3hF]-NH2 [Isovaleric Acid-E-T-H-[Dpa]-P-A-I-[Lys(Ahx_C10)]-[bhPhe]-NH2]

- FPN EC50: 427 nM
Binder: Isovaleryl-ETH[Dip]P[(n-hexyl)Gly]IK([Ahx-Palmitoyl])[β3hF]-NH2 [Isovaleric Acid-E-T-H-[Dpa]-P-[(n-hexyl)Gly]-I-[Lys(Ahx_Palm)]-[bhPhe]-NH2]

- FPN EC50: 228 nM
Binder: Isovaleryl-ETH[Dip]P[hIle′]IK([Ahx-Palmitoyl])[β3hF]-NH2 [Isovaleric Acid-E-T-H-[Dpa]-P-[hIle]-I-[Lys(Ahx_Palm)]-[bhPhe]-NH2]

- FPN EC50: 59.7 nM
Binder: Isovaleryl-ET[His(τ-Me)][Dip]PIIK([Ahx-Palmitoyl])[β3hF]-NH2 [Isovaleric Acid-E-T-[His_1Me]-[Dpa]-P-I-I-[Lys(Ahx_Palm)]-[bhPhe]-NH2]

- FPN EC50: 34.2 nM
Binder: Isovaleryl-ETH[Dip]P[tBuAlanine]IK([Ahx-Palmitoyl])[β3hF]-NH2 [Isovaleric Acid-E-T-H-[Dpa]-P-[t-BuAlanine]-I-[Lys(Ahx_Palm)]-[bhPhe]-NH2]

- FPN EC50: 214 nM
B5: Isovaleric Acid-[Tet1]-T-[His_1Me]-[Dpa]-[ButanoicP]-[Lys(Ahx_Palm)]-NH2 (peptide)
peptide: Isovaleryl-[Ala(1H-tetrazol-5-yl)]T[His(τ-Me)][Dip][ButanoicP]K([Ahx-Palmitoyl])-NH2
SMILES: CCCCCCCCCCCCCCCC(=O)NCCCCCC(=O)NCCCC[C@H](NC(=O)CCC[C@@H]1CCCN1C(=O)[C@@H](NC(=O)[C@H](Cc1cn(C)cn1)NC(=O)[C@@H](NC(=O)[C@H](Cc1nnn[nH]1)NC(=O)CC(C)C)[C@@H](C)O)C(c1ccccc1)c1ccccc1)C(N)=O

- FPN EC50: 40.3 nM
B6: Isovaleric Acid-E-T-H-[Dpa]-P-[t-BuGly]-I-[Lys(Ahx_Palm)]-[bhPhe]-NH2 (peptide)
peptide: Isovaleryl-ETH[Dip]P[Tle]IK([Ahx-Palmitoyl])[β3hF]-NH2
SMILES: CCCCCCCCCCCCCCCC(=O)NCCCCCC(=O)NCCCC[C@H](NC(=O)[C@@H](NC(=O)[C@@H](NC(=O)[C@@H]1CCCN1C(=O)[C@@H](NC(=O)[C@H](Cc1c[nH]cn1)NC(=O)[C@@H](NC(=O)[C@H](CCC(=O)O)NC(=O)CC(C)C)[C@@H](C)O)C(c1ccccc1)c1ccccc1)C(C)(C)C)[C@@H](C)CC)C(=O)N[C@H](CC(N)=O)Cc1ccccc1

- FPN EC50: 82.2 nM
Binder: Isovaleryl-ETH[Dip]PAIK([Ahx-Stearoyl])[β3hF]-NH2 [Isovaleric Acid-E-T-H-[Dpa]-P-A-I-[Lys(Ahx_C18)]-[bhPhe]-NH2]

- FPN EC50: 63.5 nM
B7: Isovaleric Acid-E-T-H-[Dpa]-P-A-I-[Lys(1PEG2_1PEG2_Ahx_Palm)]-[bhPhe]-NH2 (peptide)
peptide: Isovaleryl-ETH[Dip]PAIK([AEEA-AEEA-Ahx-Palmitoyl])[β3hF]-NH2
SMILES: CCCCCCCCCCCCCCCC(=O)NCCCCCC(=O)NCCOCCOCC(=O)NCCOCCOCC(=O)NCCCC[C@H](NC(=O)[C@@H](NC(=O)[C@H](C)NC(=O)[C@@H]1CCCN1C(=O)[C@@H](NC(=O)[C@H](Cc1c[nH]cn1)NC(=O)[C@@H](NC(=O)[C@H](CCC(=O)O)NC(=O)CC(C)C)[C@@H](C)O)C(c1ccccc1)c1ccccc1)[C@@H](C)CC)C(=O)N[C@H](CC(N)=O)Cc1ccccc1

- FPN EC50: 30.2 nM
B8: Isovaleric Acid-[Tet1]-T-[His_1Me]-[Dpa]-P-A-I-[Lys(Ahx_Palm)]-NH2 (peptide)
peptide: Isovaleryl-[Ala(1H-tetrazol-5-yl)]T[His(τ-Me)][Dip]PAIK([Ahx-Palmitoyl])-NH2
SMILES: CCCCCCCCCCCCCCCC(=O)NCCCCCC(=O)NCCCC[C@H](NC(=O)[C@@H](NC(=O)[C@H](C)NC(=O)[C@@H]1CCCN1C(=O)[C@@H](NC(=O)[C@H](Cc1cn(C)cn1)NC(=O)[C@@H](NC(=O)[C@H](Cc1nnn[nH]1)NC(=O)CC(C)C)[C@@H](C)O)C(c1ccccc1)c1ccccc1)[C@@H](C)CC)C(N)=O

- FPN EC50: 69.7 nM
Binder: Isovaleryl-ETH[Dip]P[DiethylGly]IK([Ahx-Palmitoyl])[β3hF]-NH2 [Isovaleric Acid-E-T-H-[Dpa]-P-[DiethylGly]-I-[Lys(Ahx_Palm)]-[bhPhe]-NH2]

- FPN EC50: 150 nM
B9: Isovaleric Acid-E-T-H-[Dpa]-P-[hLeu]-I-[Lys(Ahx_Palm)]-[bhPhe]-NH2 (peptide)
peptide: Isovaleryl-ETH[Dip]P[hLeu]IK([Ahx-Palmitoyl])[β3hF]-NH2
SMILES: CCCCCCCCCCCCCCCC(=O)NCCCCCC(=O)NCCCC[C@H](NC(=O)[C@@H](NC(=O)[C@H](CCC(C)C)NC(=O)[C@@H]1CCCN1C(=O)[C@@H](NC(=O)[C@H](Cc1c[nH]cn1)NC(=O)[C@@H](NC(=O)[C@H](CCC(=O)O)NC(=O)CC(C)C)[C@@H](C)O)C(c1ccccc1)c1ccccc1)[C@@H](C)CC)C(=O)N[C@H](CC(N)=O)Cc1ccccc1

- FPN EC50: 62.9 nM
Binder: Isovaleryl-ETH[Dip]PAIK([βAla-Palmitoyl])[β3hF]-NH2 [Isovaleric Acid-E-T-H-[Dpa]-P-A-I-[Lys(bAla_Palm)]-[bhPhe]-NH2]

- FPN EC50: 92.4 nM
Binder: Isovaleryl-ETH[Dip]PAIK([Ahx-Myristoyl])[β3hF]-NH2 [Isovaleric Acid-E-T-H-[Dpa]-P-A-I-[Lys(Ahx_C14)]-[bhPhe]-NH2]

- FPN EC50: 376 nM
B10: Isovaleric Acid-[Tet2]-T-H-[Dpa]-P-I-I-[Lys(Ahx_Palm)]-[bhPhe]-NH2 (peptide)
peptide: Isovaleryl-[Tet2]TH[Dip]PIIK([Ahx-Palmitoyl])[β3hF]-NH2
SMILES: CCCCCCCCCCCCCCCC(=O)NCCCCCC(=O)NCCCC[C@H](NC(=O)[C@@H](NC(=O)[C@@H](NC(=O)[C@@H]1CCCN1C(=O)[C@@H](NC(=O)[C@H](Cc1c[nH]cn1)NC(=O)[C@@H](NC(=O)[C@H](CCc1nn[nH]n1)NC(=O)CC(C)C)[C@@H](C)O)C(c1ccccc1)c1ccccc1)[C@@H](C)CC)[C@@H](C)CC)C(=O)N[C@H](CC(N)=O)Cc1ccccc1

- FPN EC50: 44.1 nM
B11: Isovaleric Acid-[Tet1]-T-H-[Dpa]-P-A-I-[Lys(Ahx_Palm)]-NH2 (peptide)
peptide: Isovaleryl-[Ala(1H-tetrazol-5-yl)]TH[Dip]PAIK([Ahx-Palmitoyl])-NH2
SMILES: CCCCCCCCCCCCCCCC(=O)NCCCCCC(=O)NCCCC[C@H](NC(=O)[C@@H](NC(=O)[C@H](C)NC(=O)[C@@H]1CCCN1C(=O)[C@@H](NC(=O)[C@H](Cc1c[nH]cn1)NC(=O)[C@@H](NC(=O)[C@H](Cc1nnn[nH]1)NC(=O)CC(C)C)[C@@H](C)O)C(c1ccccc1)c1ccccc1)[C@@H](C)CC)C(N)=O
